Laboratory results from PMC6548133 (The Journal of Cell Biology, 2019).

B1: human Rap1 isoform Rap1b (residues 1–167) (natural protein)
chain: MREYKLVVLGSGGVGKSALTVQFVQGIFVEKYDPTIEDSYRKQVEVDAQQCMLEILDTAGTEQFTAMRDLYMKNGQGFALVYSITAQSTFNDLQDLREQILRVKDTDDVPMILVGNKCDLEDERVVGKEQGQNLARQWNNCAFLESSAKSKINVNEIFYDLVRQINR

How the values were obtained:
[1] = target: murine talin1 head domain, residues 1–400 (THD) (murine, UniProt P26039 1-400); test: NMR titration
[2] = target: B1; test: NMR titration

Chain of murine talin1 head domain, residues 1–400 (THD) (P26039 1-400): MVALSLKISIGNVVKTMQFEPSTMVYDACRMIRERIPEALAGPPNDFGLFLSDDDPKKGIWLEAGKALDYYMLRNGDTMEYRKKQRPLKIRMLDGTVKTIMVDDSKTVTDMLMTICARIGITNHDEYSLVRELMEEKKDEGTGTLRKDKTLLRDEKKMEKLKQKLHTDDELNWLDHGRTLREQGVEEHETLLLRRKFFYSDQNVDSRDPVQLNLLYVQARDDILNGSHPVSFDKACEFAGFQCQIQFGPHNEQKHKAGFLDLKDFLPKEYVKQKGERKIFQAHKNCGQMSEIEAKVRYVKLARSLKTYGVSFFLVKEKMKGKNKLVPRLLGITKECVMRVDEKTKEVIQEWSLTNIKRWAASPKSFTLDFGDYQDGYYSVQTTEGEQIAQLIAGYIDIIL

Binder | binding result [1] | binding result [2]
B1 | binds | 
talin1 F1(ΔL), residues 84–196 Δ141–170 (F1 Δloop) (domain or fragment) KQRPLKIRMLDGTVKTIMVDDSKTVTDMLMTICARIGITNHDEYSLVRELMEEKKDELNWLDHGRTLREQGVEEHETLLLRRK |  | binds
